The Human Domainome abundance scans (Beltran et al. 2025)
± gives the uncertainty stated by the source.

B1: Zinc finger MYM-type protein 6, residues 427 to 504; numbered along this chain, O95789 (parent)
chain: KLKCQHCNHLFATKPELLFYKGKMFLFCGKNCSDEYKKKNKVVAMCDYCKLQKIIKETVRFSGVDKPFCSEVCKFLSA

Variants of: B1
Experiment: abundance fitness (aPCA) (normalised: wild type 0, dead -1); higher = more abundant; growth selection in yeast, the domain comes from the species named
Details: Homo sapiens

Variant	abundance fitness
KLKCQHCNHLFATDPELLFYKGKMFLFCGKNCSDEYKKKNKVVAMCDYCKLQKIIKETVRFSGVDKPFCSEVCKFLSA	-0.081 ± 0.068
KLKCQHCNHLFATKPELLFYKGKRFLFCGKNCSDEYKKKNKVVAMCDYCKLQKIIKETVRFSGVDKPFCSEVCKFLSA	0.13 ± 0.029
KLKCQHCNHLFATKPELLFYKGKDFLFCGKNCSDEYKKKNKVVAMCDYCKLQKIIKETVRFSGVDKPFCSEVCKFLSA	0 ± 0.061
KLKCQHCNHLFATKPELLFYKGKMFLFCGKNCSDEYKKKNKVVAMCSYCKLQKIIKETVRFSGVDKPFCSEVCKFLSA	0.311 ± 0.082
KLKCQHCNHLFATKPELLFYKGKMFLFCGKNCSDEYKKKNKVVAMCHYCKLQKIIKETVRFSGVDKPFCSEVCKFLSA	0.26 ± 0.23
KLKCQHCNHLFATKPELLFYKGKMFLFCGKNCSDETKKKNKVVAMCDYCKLQKIIKETVRFSGVDKPFCSEVCKFLSA	-0.169 ± 0.06
KLKCQHCNHLFATKPELLFYKGKMFLFCGKNGSDEYKKKNKVVAMCDYCKLQKIIKETVRFSGVDKPFCSEVCKFLSA	-1.02 ± 0.069
KLKCQHCNHLFATKPELLFYKGKMFLFCGKNCSDEYKKKNKVVAMCDYDKLQKIIKETVRFSGVDKPFCSEVCKFLSA	-0.718 ± 0.14
KLKCQHCNHLFATKPELLFYKGKMFLFCGKNCSDEYRKKNKVVAMCDYCKLQKIIKETVRFSGVDKPFCSEVCKFLSA	-0.046 ± 0.028
KLKCQHCNHLFATKPELLFYKGKMFLFNGKNCSDEYKKKNKVVAMCDYCKLQKIIKETVRFSGVDKPFCSEVCKFLSA	-0.367 ± 0.11
KLKCQHCNHLFATKPELLFYKGKMFLFMGKNCSDEYKKKNKVVAMCDYCKLQKIIKETVRFSGVDKPFCSEVCKFLSA	-0.752 ± 0.22
KLKCQHCNHLFATKPELLFYKGKMFLFCGKNCSDEYKKKNKVVAMCDYCKLQKIIKETVRVSGVDKPFCSEVCKFLSA	0.399 ± 0.079
KLKCQHCNHLFATKPELLFYKGKMFLFCGKNCSDEYKKKNKVVAMCDYCKLQKIIKETVRCSGVDKPFCSEVCKFLSA	0.561 ± 0.085
KLKCQHCNHLFATKPELLFYKGKMFLFCGKSCSDEYKKKNKVVAMCDYCKLQKIIKETVRFSGVDKPFCSEVCKFLSA	-0.042 ± 0.034
KLKCQHCNHLFATKPELLFYKGKMFLFCGKNCSDEYKWKNKVVAMCDYCKLQKIIKETVRFSGVDKPFCSEVCKFLSA	-0.136 ± 0.042
KLKCIHCNHLFATKPELLFYKGKMFLFCGKNCSDEYKKKNKVVAMCDYCKLQKIIKETVRFSGVDKPFCSEVCKFLSA	-0.156 ± 0.064
KLKCQHCNHLFATKPELLFYKGKMFLFCGKNCSDEYKKKNKVVAMCDYCKLQKIIKETVRFSGVDKPFCSEVCKFLTA	-1.01 ± 0.37
KLKCQHCNHLFATKPELLFYKGKMFLFCGKNCSDEYKKKNKVVAMCDYCKLQKIIKETVRFSGVDKPFCSEVCKFLGA	0.139 ± 0.079

Variant	abundance fitness
KLKCQHCNHLFATKPELLFYKGKMFLFCGKNCSDEYKKKNKVVAMCDYCKLQKIIKETVRFSGVDKPFCSEVCKFLWA	-0.106 ± 0.093
KLKWQHCNHLFATKPELLFYKGKMFLFCGKNCSDEYKKKNKVVAMCDYCKLQKIIKETVRFSGVDKPFCSEVCKFLSA	-1.11 ± 0.08
KLKCQHCNHLFATKPQLLFYKGKMFLFCGKNCSDEYKKKNKVVAMCDYCKLQKIIKETVRFSGVDKPFCSEVCKFLSA	-0.03 ± 0.041
KLKCQHCNHLFATKPGLLFYKGKMFLFCGKNCSDEYKKKNKVVAMCDYCKLQKIIKETVRFSGVDKPFCSEVCKFLSA	-0.279 ± 0.031
KLKCQHCNHLFATKPLLLFYKGKMFLFCGKNCSDEYKKKNKVVAMCDYCKLQKIIKETVRFSGVDKPFCSEVCKFLSA	-0.139 ± 0.036
KLKCQHCNHLFATKPELLFYKGKMFLFCVKNCSDEYKKKNKVVAMCDYCKLQKIIKETVRFSGVDKPFCSEVCKFLSA	-0.204 ± 0.034
KLKCQHCNHLFATKPELLFYKGKMFLFCGKNCSDEYKKKNKVVAMCDYCKLQKIIKHTVRFSGVDKPFCSEVCKFLSA	0.272 ± 0.27
KMKCQHCNHLFATKPELLFYKGKMFLFCGKNCSDEYKKKNKVVAMCDYCKLQKIIKETVRFSGVDKPFCSEVCKFLSA	0.048 ± 0.084
KLKCQHCNHLFATKPELLFYKGKMFLFCGKNCSDEYKKKNKVVAMCDYCKLQKIIKETVRFSGVDKPFCSEVCGFLSA	-0.427 ± 0.13
KLKCQHCNHLFATKPELLFYKGKMFLFCGKNCSDEYKKKNKVVAMCDYCKLQKIIKETVRFSGVDKPFCSGVCKFLSA	-0.292 ± 0.092
KLKCQHCNHLFATKPELLFYKGKMFLFCGKNCSDEYKKKNKVVAMCDYCKLQKIIKETVRFSGVDKPFCSEVCKFVSA	-0.581 ± 0.098
KLKCQHCNHLFATKPELLFYKGKMFLFCGKNCSDEYKKKNKVVAMCDYCKLQKIIKETVRFSGVDKPFCSEVCKFMSA	0.759 ± 0.09
KLKCQPCNHLFATKPELLFYKGKMFLFCGKNCSDEYKKKNKVVAMCDYCKLQKIIKETVRFSGVDKPFCSEVCKFLSA	-0.993 ± 0.081
KLKCQHCNHLFATKPELLFYKGKMFLFCGKNCSDEYKKKNKVVAMCDYCKLQKIIKETVRFSGVSKPFCSEVCKFLSA	-0.188 ± 0.1
KLKCQHCNHLFATKPELLFYKGKMFLFCGKNCSDEYKKKNKVVAMCDYCKLQKIIKETVRFSGVEKPFCSEVCKFLSA	0.142 ± 0.11
KLKCQHCNHLFATKPELLFYKGKMFLFCGKNCSDEYKKKNKVVAMCDYCKLQKIIKETVRFSGADKPFCSEVCKFLSA	-0.302 ± 0.13
KLKCQHCNHLFATKPELLFYKGKMFLFCGKNCSDEYKKRNKVVAMCDYCKLQKIIKETVRFSGVDKPFCSEVCKFLSA	-0.004 ± 0.029
